Patent publication US20210253725A1 (BIONTECH, published 2021)

T1: CD134 expressed on the cell surface of HT1080_OX40 cells (human, UniProt P43489 29-277)
T1 construct: whole, on cells; species not restated for the HT1080 transfectant
T1 sequence (looked up): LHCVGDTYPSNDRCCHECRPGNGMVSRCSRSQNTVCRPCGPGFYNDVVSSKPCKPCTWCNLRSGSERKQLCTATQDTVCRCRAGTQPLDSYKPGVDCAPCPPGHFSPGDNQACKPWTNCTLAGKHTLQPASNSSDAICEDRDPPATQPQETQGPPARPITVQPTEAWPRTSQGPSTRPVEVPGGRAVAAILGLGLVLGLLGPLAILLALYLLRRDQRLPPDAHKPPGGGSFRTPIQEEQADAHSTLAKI

T2: CD134 protein (His-tagged, Sino Biological Inc. 10481-H08H) (human, UniProt P43489 29-216)
T2 construct: bought protein coated on ELISA plates; also called OX40; TNFRSF4; not shown: His tag
T2 sequence (looked up): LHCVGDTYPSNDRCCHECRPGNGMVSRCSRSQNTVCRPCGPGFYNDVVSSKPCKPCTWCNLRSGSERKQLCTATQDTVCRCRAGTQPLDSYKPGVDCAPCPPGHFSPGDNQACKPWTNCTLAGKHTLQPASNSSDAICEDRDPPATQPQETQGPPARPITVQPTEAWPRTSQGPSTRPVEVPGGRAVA


Assays:
[1] = molecular target: T1, CD134 expressed on the cell surface of …; test: HT1080_OX40 cells, imaging
[2] = molecular target: T1, CD134 expressed on the cell surface of …; test: cell-based or functional assay
[3] = molecular target: T2, CD134 protein (His-tagged, Sino …); test: ELISA, coated His-tagged CD134
Note: test concentration or dose not given here.

Binder | Cellular binding assay [RFU] [1] [RFU] | Functional assay Cross-linked by F(ab′)2 fragment IL-8 [2] [abs. corr.] | Functional assay IL-8 [2] [abs. corr.] | ELISA [abs. corr.] [3] [abs. corr.]
P018.S.12.A.F02 (antibody, V domains shown, V regions on human Ig constant parts; also called AB134_78) VH: QSLEESGGRLVTPGTPLTLTCTASGFSLIKSHINWVRQAPGKGLEWVGGIAYDDNTYYANWAKGRFTISKTSTTVDLRITSPTTADTATYFCAREDSSGWGSFNLWGQGTLVTVSS VL: AQVLTQTPSSVSAAVGGTVTISCQSSQSVYATNQLSWFQQKSGQPPKRLIYSASTLASGVSSRFKGSGSGTQFTLTISGVQSDDAATYYCQGAYDCSGGDCRAFGGGTEVVVK | 549 | 1.99 | 0.185 | 2.07
P018.S.12.A.B02 (antibody, V domains shown, V regions on human Ig constant parts; also called AB134_57) VH: QSLEESGGRLVTPGTPLTLTCTVSGIDLSKYTMTWVRQAPGKGLEWIGLISFGGRGGTWYANWAKGRFTISKTSTTVDLRIASPTTEDTATYFCARARYSGTNYDYFNLWGQGTLVTVSS VL: AYDMTQTPASVEVAVGGTVTIKCQASQSISNWLAWYQQKPGQRPKLLIYGASNLESGVPSRFKGSGSGTDFTLTISDLESADAATYYCQQGYSSDGVTNAFGGGTEVVVE | 560 | 1.97 | -0.167 | 2.21
P018.S.12.A.F04 (antibody, V domains shown, V regions on human Ig constant parts; also called AB134_80) VH: QQQLEESGGGLVKPGGTLTLTCTASGIDFSSYWMWWVRQPPGKGLEWVACIYNGDGSTYYASWAKGRFTISKTSSTTVTLQMTSLTAADTATYFCARDFHLWGPGTLVTVSS VL: AQVLTQTASPVSAAVGSTVTINCQASQNIYKNNYLSWYQQKPGQPPKGLIYSASTLDSGVPLRFSGSGSGTKFTLTISDVQSDDAATYYCLGSVACSGPDCIVFGGGTEVVVK | 551 | 1.95 | 0.289 | 2.11

Second part, the binder after the results:

Cellular binding assay [RFU] [1] [RFU] | Functional assay Cross-linked by F(ab′)2 fragment IL-8 [2] [abs. corr.] | Functional assay IL-8 [2] [abs. corr.] | ELISA [abs. corr.] [3] [abs. corr.] | Binder
482 | 2 | 0.461 | 2.04 | P018.S.12.A.E03 (antibody, V domains shown, V regions on human Ig constant parts; also called AB134_74) VH: QSVEESGGRLVTPGTPLTLTCTVAGIDLNICGMSWVRQAPGKGLEWIGIIYPSDYTYYATWAKGRFTISKTSTTVDLKITSPTTEDTATYFCARGLGHAWSHFDLWGQGTLVTVSS VL: AFELTQTPASVSEPVGGTVTIKCQASQSIGSDLAWYQQKPGQPPKLLIYSVSNLPSGVSSRFKGSRSGTEYTLTISDLESADAATYYCQSYYGTITTGYIAFGGGTEVVVK
582 | 1.99 | 0.533 | 2.1 | P018.S.11.A.A04 (antibody, V domains shown, V regions on human Ig constant parts; also called AB134_21) VH: QSVEESGGRLVTPGTPLTLTCTVSGFSLSSYAMGWVRQAPGKGLEYIGVISTSANTYYATWAKGRFTISKTSTTVDLRITSPTTEDTATYFCARVVGLYDSYGDVDATYDAFDPWGPGTLVTVSS VL: AQVLTQTASPVSAAVGDTVTINCQSSQSVYNNNLLSWYQQKPGQPPKLLVYDASNLASGVPHRFSGSGSGTQFTLTISGVQSDDAATYYCLGGYDDDADIYAFGGGTEVVVK
130 | 1.97 | 0.019 | 0.744 | P018.S.11.A.D06 (antibody, V domains shown, V regions on human Ig constant parts; also called AB134_32) VH: QSLEESGGRLVKPGESLTLTCTVSEFSLSSNAMGWVRQAPGKGLEFIGLIDSGGDAYYATWAKGRFTISKTSSTTVDLKATSLTTEDTATYFCGRGYWFPRLGLWGQGTLVTVSS VL: AAVLTQTPSPVSAAVGGTVSINCQSTKNVYLNNWLGWFQKKPGQPPKLLIYDASTLASGVPSRFKGSGSGTEFTLTISDLESDDAATYYCAGAYDDNSDHTFGGGTEVVVK
498 | 1.95 | 0.567 | 2.52 | P018.S.11.A.H06 (antibody, V domains shown, V regions on human Ig constant parts; also called AB134_49) VH: QSLEESGGRLVTPGTPLTLTCTVSGFSLSTYAMIWVRQAPGEGPEWIGLIAGGGNTWYASWAKGRFTISKTSTTVDLKITSPTTEDTATYFCARADYLGYGNNFWGQGTLVTVSS VL: AAVLTQTPSPVSAAVGGTVTINCQASQSVYNNNYLAWYQQKPGQPPKLLIYWASNLASGVPSRFSGSGSGTQFSLTISGVQSDDAATYYCLGVYDDDADNGFGGGTEVVVK
